Test results from paper PMC8581553 (Cell reports, 2021).

B1: HA-SNAP-GluK3 (receptor, rat, UniProt P42264 32-919, looked up)
chain: MPHVIRIGGIFEYADGPNAQVMNAEEHAFRFSANIINRNRTLLPNTTLTYDIQRIHFHDSFEATKKACDQLALGVVAIFGPSQGSCTNAVQSICNALEVPHIQLRWKHHPLDNKDTFYVNLYPDYASLSHAILDLVQSLKWRSATVVYDDSTGLIRLQELIMAPSRYNIRLKIRQLPIDSDDSRPLLKEMKRGREFRIIFDCSHTMAAQILKQAMAMGMMTEYYHFIFTTLDLYALDLEPYRYSGVNLTGFRILNVDNAHVSAIVEKWSMERLQAAPRAESGLLDGVMMTDAALLYDAVHIVSVCYQRASQMTVNSLQCHRHKPWRFGGRFMNFIKEAQWEGLTGRIVFNKTSGLRTDFDLDIISLKEDGLEKVGVWSPADGLNITEVAKGRGPNVTDSLTNRSLIVTTLLEEPFVMFRKSDRTLYGNDRFEGYCIDLLKELAHILGFSYEIRLVEDGKYGAQDDKGQWNGMVKELIDHKADLAVAPLTITHVREKAIDFSKPFMTLGVSILYRKPNGTNPSVFSFLNPLSPDIWMYVLLAYLGVSCVLFVIARFSPYEWYDAHPCNPGSEVVENNFTLLNSFWFGMGSLMQQGSELMPKALSTRIIGGIWWFFTLIIISSYTANLAAFLTVERMESPIDSADDLAKQTKIEYGAVKDGATMTFFKKSKISTFEKMWAFMSSKPSALVKNNEEGIQRTLTADYALLMESTTIEYITQRNCNLTQIGGLIDSKGYGIGTPMGSPYRDKITIAILQLQEEDKLHIMKEKWWRGSGCPEEENKEASALGIQKIGGIFIVLAAGLVLSVLVAVGEFIYKLRKTAEREQRSFCSTVADEIRFSLTCQRRLKHKPQPPMMVKTDAVINMHTFNDRRLPGKDSMSCSTSLAPVFP
modifications: SNAP tag labelled with SBG-OG (Oregon Green)

Key:
[1] = target: the molecule itself; assay: single-molecule pull-down
HA-SNAP-GluK3 = target: B1; assay: single-molecule pull-down

stoichiometry N (HA-SNAP-GluK3) | Binder | stoichiometry N [1]
 | B1 | 4
≤ 2 GluK5 subunits in a di-heteromer | Halo-GluK5 (receptor, rat, UniProt Q63273 15-979, looked up, Halo tag labelled with CA-Sulfo549 (two-colour) or CA-Sulfo646 (three-colour)) NPSCQVLSSLRMAAILDDQTVCGRGERLALALAREQINGIIEVPAKARVEVDIFELQRDSQYETTDTMCQILPKGVVSVLGPSSSPASASTVSHICGEKEIPHIKVGPEETPRLQYLRFASVSLYPSNEDVSLAVSRILKSFNYPSASLICAKAECLLRLEELVRGFLISKETLSVRMLDDSRDPTPLLKEIRDDKVSTIIIDANASISHLVLRKASELGMTSAFYKYILTTMDFPILHLDGIVEDSSNILGFSMFNTSHPFYPEFVRSLNMSWRENCEASTYPGPALSAALMFDAVHVVVSAVRELNRSQEIGVKPLACTSANIWPHGTSLMNYLRMVEYDGLTGRVEFNSKGQRTNYTLRILEKSRQGHREIGVWYSNRTLAMNATTLDINLSQTLANKTLVVTTILENPYVMRRPNFQALSGNERFEGFCVDMLRELAELLRFRYRLRLVEDGLYGAPEPNGSWTGMVGELINRKADLAVAAFTITAEREKVIDFSKPFMTLGISILYRVHMGRKPGYFSFLDPFSPAVWLFMLLAYLAVSCVLFLAARLSPYEWYNPHPCLRARPHILENQYTLGNSLWFPVGGFMQQGSEIMPRALSTRCVSGVWWAFTLIIISSYTANLAAFLTVQRMEVPVESADDLADQTNIEYGTIHAGSTMTFFQNSRYQTYQRMWNYMQSKQPSVFVKSTEEGIARVLNSRYAFLLESTMNEYHRRLNCNLTQIGGLLDTKGYGIGMPLGSPFRDEITLAILQLQENNRLEILKRKWWEGGRCPKEEDHRAKGLGMENIGGIFVVLICGLIIAVFVAVMEFIWSTRRSAESEEVSVCQEMLQELRHAVSCRKTSRSRRRRRPGGPSRALLSLRAVREMRLSNGKLYSAGAGGDAGAHGGPQRLLDDPGPPGGPRPQAPTPCTHVRVCQECRRIQALRASGAGAPPRGLGTPAEATSPPRPRPGPTGPRELTEHE | 
 | HA-SNAP-GluK1 (receptor, rat, UniProt P22756 31-949, looked up, SNAP tag labelled with SBG-OG (Oregon Green); for smFRET with BG-LD555 and/or BG-LD655) QTSPQVLRIGGIFETVENEPVNVEELAFKFAVTSINRNRTLMPNTTLTYDIQRINLFDSFEASRRACDQLALGVAALFGPSHSSSVSAVQSICNALEVPHIQTRWKHPSVDSRDLFYINLYPDYAAISRAVLDLVLYYNWKTVTVVYEDSTGLIRLQELIKAPSRYNIKIKIRQLPPANKDAKPLLKEMKKSKEFYVIFDCSHETAAEILKQILFMGMMTEYYHYFFTTLDLFALDLELYRYSGVNMTGFRKLNIDNPHVSSIIEKWSMERLQAPPRPETGLLDGMMTTEAALMYDAVYMVAIASHRASQLTVSSLQCHRHKPCALGPRFMNLIKEARWDGLTGRITFNKTDGLRKDFDLDIISLKEEGTEKASGEVSKHLYKVWKKIGIWNSNSGLNMTDGNRDRSNNITDSLANRTLIVTTILEEPYVMYRKSDKPLYGNDRFEAYCLDLLKELSNILGFLYDVKLVPDGKYGAQNDKGEWNGMVKELIDHRADLAVAPLTITYVREKVIDFSKPFMTLGISILYRKPNGTNPGVFSFLNPLSPDIWMYVLLACLGVSCVLFVIARFTPYEWYNPHPCNPDSDVVENNFTLLNSFWFGVGALMQQGSELMPKALSTRIVGGIWWFFTLIIISSYTANLAAFLTVERMESPIDSADDLAKQTKIEYGAVRDGSTMTFFKKSKISTYEKMWAFMSSRQQSALVKNSDEGIQRVLTTDYALLMESTSIEYVTQRNCNLTQIGGLIDSKGYGVGTPIGSPYRDKITIAILQLQEEGKLHMMKEKWWRGNGCPEEDSKEASALGVENIGGIFIVLAAGLVLSVFVAIGEFLYKSRKNNDVEQKGKSSRLRFYFRNKVRFHGSKKESLGVEKCLSFNAIMEELGISLKNQKKLKKKSRTKGKSSFTSILTCHQRRTQRKETVA | 4
 | HA-SNAP-GluK2 (receptor, rat, UniProt P42260 32-908, looked up, SNAP tag labelled with SBG-OG (Oregon Green); for smFRET with BG-LD555 and BG-LD655) TTHVLRFGGIFEYVESGPMGAEELAFRFAVNTINRNRTLLPNTTLTYDTQKINLYDSFEASKKACDQLSLGVAAIFGPSHSSSANAVQSICNALGVPHIQTRWKHQVSDNKDSFYVSLYPDFSSLSRAILDLVQFFKWKTVTVVYDDSTGLIRLQELIKAPSRYNLRLKIRQLPADTKDAKPLLKEMKRGKEFHVIFDCSHEMAAGILKQALAMGMMTEYYHYIFTTLDLFALDVEPYRYSGVNMTGFRILNTENTQVSSIIEKWSMERLQAPPKPDSGLLDGFMTTDAALMYDAVHVVSVAVQQFPQMTVSSLQCNRHKPWRFGTRFMSLIKEAHWEGLTGRITFNKTNGLRTDFDLDVISLKEEGLEKIGTWDPASGLNMTESQKGKPANITDSLSNRSLIVTTILEEPYVLFKKSDKPLYGNDRFEGYCIDLLRELSTILGFTYEIRLVEDGKYGAQDDVNGQWNGMVRELIDHKADLAVAPLAITYVREKVIDFSKPFMTLGISILYRKPNGTNPGVFSFLNPLSPDIWMYILLAYLGVSCVLFVIARFSPYEWYNPHPCNPDSDVVENNFTLLNSFWFGVGALMQQGSELMPKALSTRIVGGIWWFFTLIIISSYTANLAAFLTVERMESPIDSADDLAKQTKIEYGAVEDGATMTFFKKSKISTYDKMWAFMSSRRQSVLVKSNEEGIQRVLTSDYAFLMESTTIEFVTQRNCNLTQIGGLIDSKGYGVGTPMGSPYRDKITIAILQLQEEGKLHMMKEKWWRGNGCPEEESKEASALGVQNIGGIFIVLAAGLVLSVFVAVGEFLYKSKKNAQLEKRSFCSAMVEELRMSLKCQRRLKHKPQAPVIVKTEEVINMHTFNDRRLPGKETMA | 4
